Like-named read-outs stand apart in the source and are kept apart here.
B1: viral macrophage inflammatory protein (vMIP)-II encoded by human herpesvirus 8 (HHV8) (ligand, UniProt Q98157 21-94, looked up)
chain: GDTLGASWHRPDKCCLGYQKRPLPQVLLSSWYPTSQLCSKPGVIFLTKRGRQVCADKSKDWVKKLMQQLPVTAR
B2: MC148 CC chemokine from molluscum contagiosum virus (MCV), processed secreted protein (ligand, molluscum contagiosum virus subtype 1, UniProt Q98314 1-104, looked up)
chain: LARRKCCLNPTNRPIPNPLLQDLSRVDYQAIGHDCGREAFRVTLQDGRQGCVSVGNKSLLDWLRGHKDLCPQIWSGCESL
B3: I-309 (ligand, human, UniProt P22362 24-96, looked up)
chain: KSMQVPFSRCCFSFAEQEIPLRAILCYRNTSSICSNEGLIFKLKRGKEACALDTVGWVQRHRKMLRHCPSKRK

Legend:
[1] = target: T1, CC chemokine receptor 8 (CCR8) (human, UniProt P51685 1-355); assay: radioligand binding
[2] = target: T1, CC chemokine receptor 8 (CCR8); assay: radioligand binding; remark: listed apart in the source

T1 sequence (P51685 whole entry): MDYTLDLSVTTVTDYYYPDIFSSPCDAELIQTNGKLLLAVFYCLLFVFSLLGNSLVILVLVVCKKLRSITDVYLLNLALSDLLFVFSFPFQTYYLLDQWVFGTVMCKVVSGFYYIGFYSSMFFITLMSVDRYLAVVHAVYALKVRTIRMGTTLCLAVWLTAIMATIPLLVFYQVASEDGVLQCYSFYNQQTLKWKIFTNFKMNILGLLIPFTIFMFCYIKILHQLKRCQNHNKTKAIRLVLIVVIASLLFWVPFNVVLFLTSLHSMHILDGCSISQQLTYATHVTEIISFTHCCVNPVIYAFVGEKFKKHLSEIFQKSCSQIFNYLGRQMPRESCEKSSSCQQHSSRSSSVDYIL

Binder | IC50 [1] [pM] | IC50 [2] [pM]
B1 | 27800 | 
B2 | 470 | 270
B3 | 520 | 
